Measurements taken from the supplement of paper PMC7877785.
± gives the uncertainty stated by the source.

Assay: self-splicing fitness, log relative to wild type (ln ratio); higher = more splicing; Tetrahymena group I intron in knt gene, E. coli kanamycin selection, DiMSum; sequences stand for … in CUCUCU…GGAGGGAAAAGUUAUCAGGCAUGCACCUGGUAGCUAGUCUUUAAACCAAUAGAUUGCAUCGGUUUAAAAGGCAAGACCGUCAAAUUGCGGGAAAGGGGUCAACAGCCGUUCAGUACCAAGUCUCAGGGGAAACUUUGAGAUGGCCUUGCAAAGGGUAUGGUAAUAAGCUGACGGACAUGGUCCUAACCACGCAGCCAAGUCCUAAGUCAACAGAUCUUCUGUUGAUAUGGAUGCAGUUCACAGACUAAAUGUCGGUCGGGGAAGAUGUAUUCUUCUCAUAAGAUAUAGUCGGACCUCUCCUUAAUGGGAGCUAGCGGAUGAAGUGAUGCAACACUGGAGCCGCUGGGAACUAAUUUGUAUGCGAAAGUAUAUUGAUUAGUUUUGGAGUACUCGUGGUCG
Method in brief: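 A randomised library covering all eight P1ex-region intron nucleotides was built with the intron in the knt kanamycin-resistance gene on pET-22b(+) and held in E. coli BL21(DE3). Cells were grown overnight at 37°C or 30°C on LB agar, with or without 25 μg/mL kanamycin, plus 100 μg/mL carbenicillin, 50 μM IPTG and 0.2% rhamnose, and pooled colonies were amplicon-sequenced on an Illumina HiSeq 2500. DiMSum fitness is the error-weighted combination of wild-type-normalised replicate fold changes, kanamycin versus none.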

| Sequence | self-splicing fitness (ln) (30 °C) | self-splicing fitness (ln) (37 °C) |
| --- | --- | --- |
| CGUUAGCAAUAUUACGACGG | 0.168 ± 0.13 | -0.377 ± 0.12 |
| CGUUAGCAAUAUUACGACUC | -0.808 ± 0.25 | 0.024 ± 0.23 |
| CGUUAGCAAUAUUACGAGAA | -1.93 ± 0.49 | -1.45 ± 0.46 |
| CGUUAGCAAUAUUACGAUAA | -2.9 ± 0.26 | -1.52 ± 0.22 |
| CGUUAGCAAUAUUACGCAGA | -3.21 ± 0.41 | -2.31 ± 0.23 |
| CGUUAGCAAUAUUACGCAUU | -4.27 ± 0.25 | -1.29 ± 0.12 |
| CGUUAGCAAUAUUACGCCGG | -0.8 ± 0.11 | -0.767 ± 0.11 |
| CGUUAGCAAUAUUACGCGUA | – | -0.996 ± 0.25 |
| CGUUAGCAAUAUUACGCGUU | -4.08 ± 0.13 | -2.39 ± 0.12 |
| CGUUAGCAAUAUUACGCUAC | -1.48 ± 0.24 | – |
| CGUUAGCAAUAUUACGCUAU | -2.29 ± 0.28 | – |
| CGUUAGCAAUAUUACGGGGC | -2.57 ± 0.15 | -3.12 ± 0.28 |
| CGUUAGCAAUAUUACGUCAA | – | -1.41 ± 0.38 |
| CGUUAGCAAUAUUACGUCCC | – | -0.641 ± 0.36 |
| CGUUAGCAAUAUUACGUCGA | -2.71 ± 0.19 | -1.16 ± 0.2 |
| CGUUAGCAAUAUUACGUUCU | -1.39 ± 0.15 | -1.25 ± 0.14 |
| CGUUAGCAAUAUUACGUUGU | -4.22 ± 0.29 | -2.78 ± 0.22 |
| CGUUAGCAAUAUUACGUUUC | -3.28 ± 0.2 | -2.19 ± 0.21 |
| CGUUAGCAAUAUUACGUUUG | -1.01 ± 0.08 | -0.558 ± 0.1 |
| CGUUAGCAAUAUUACGUUUU | -4.77 ± 0.27 | -2.99 ± 0.17 |

| Sequence | self-splicing fitness (ln) (30 °C) | self-splicing fitness (ln) (37 °C) |
| --- | --- | --- |
| CUAAAGCAAUAUUACGAACA | -2.48 ± 0.12 | -2.03 ± 0.2 |
| CUAAAGCAAUAUUACGACAC | – | -1.88 ± 0.47 |
| CUAAAGCAAUAUUACGACGU | -3.33 ± 0.28 | -0.435 ± 0.19 |
| CUAAAGCAAUAUUACGAGAC | -3.33 ± 0.18 | -0.499 ± 0.16 |
| CUAAAGCAAUAUUACGAUCU | -4.75 ± 0.23 | -2.5 ± 0.18 |
| CUAAAGCAAUAUUACGCAAG | -1.11 ± 0.089 | -0.574 ± 0.12 |
| CUAAAGCAAUAUUACGCACA | -2.11 ± 0.16 | -2.11 ± 0.27 |
| CUAAAGCAAUAUUACGCACG | -0.0346 ± 0.092 | 0.511 ± 0.14 |
| CUAAAGCAAUAUUACGCAGA | -3.64 ± 0.2 | -3.29 ± 0.42 |
| CUAAAGCAAUAUUACGCAGC | -3.5 ± 0.33 | -2.3 ± 0.44 |
| CUAAAGCAAUAUUACGCCCC | -1.15 ± 0.45 | – |
| CUAAAGCAAUAUUACGCCGC | -2.9 ± 0.22 | – |
| CUAAAGCAAUAUUACGCGUC | -3.94 ± 0.31 | -2.17 ± 0.25 |
| CUAAAGCAAUAUUACGGAAC | -2.36 ± 0.19 | -1.42 ± 0.17 |
| CUAAAGCAAUAUUACGGCAG | -0.0254 ± 0.076 | -0.422 ± 0.098 |
| CUAAAGCAAUAUUACGGUGU | -4.65 ± 0.25 | -3.05 ± 0.21 |
| CUAAAGCAAUAUUACGUGAA | -3.29 ± 0.23 | -3.36 ± 0.32 |
| CUAAAGCAAUAUUACGUUAC | -3.78 ± 0.26 | -2.06 ± 0.31 |
| CUAAAGCAAUAUUACGUUUU | -4.6 ± 0.26 | -2.58 ± 0.21 |
| CUACAGCAAUAUUACGAACU | -4.38 ± 0.24 | -2.02 ± 0.25 |
